A protein production outcome set (Wang et al. 2014)

Experiment: label from the status in PepcDB records
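Note: failed if final PepcDB status was selected cloned or expressed and not failed if soluble or beyond.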

Sequence	protein production
MSKIASEVVATTLNDWYIAIKKQKVDESIKYYSEIKKLFDEMEEDQEVLAYYSLLEERHKMLLHSSRGEPLQKHTYFTEDNQNFITKTNDKLEYNFYLFEAMYEAYNKNYDRAINLYGLAEKKLAEIPDEIEAAEFYSKVSYLYTLVKQSIVAQHYIKNAISIYKRHPDYKCKLATSTMIAAANYADMKRFEEAEQYYLEAIDIAKETKDEFLKAQLFHNLSIVYSDWNKPDKCIESLEKAIGNESWLHSIYYINSLFMMIKELFKIDEKMKAINFYNKAQERLILMENKVYEAKISILYNLYCGELKNNFNNCISNIEFLKQQNELESVDELSYIAAKRFESIGAFEEATSFFNAKIWAEQKMNQVEGIL	failed
MTATQITGVVLAAGRSNRLGTPKQLLPYRDTTVLGATLDVARQAGFDQLILTLGGAASAVRAAMALDGTDVVVVEDVERGCAASLRVALARVHPRATGIVLMLGDQPQVAPATLRRIIDVGPATEIMVCRYADGVGHPFWFSRTVFGELARLHGDKGVWKLVHSGRHPVRELAVDGCVPLDVDTWDDYRRLLESVPSLEHHHHHH	failed
MILYVFLFFVGLLLLYLGAEGLIQGASSIALQYGIRPVILGLTVVALGTSMPEYLVNVFALISGESPLAIGNIIGSNISNVALILGACAVVLPLAVTPEVLRREYPVMLGVMVLFYLCALDGVIGARDGVLMVVLLSGLAAYVFYDAHRTTRGTVLESMEGELDAADPDLSTLAKAVYVIGGMGGLTLGAHLMVDNALAISDVLNIDHVVIGLTVVAIGTSLPELAASMVGTLKQEVDMTVGNVIGSNLLNVLFVVGTLAIAEPITVDPETIRLHFPVMLGFCALLVPLTWWDQKITRVEGAFMVIAFLGFMVFLYV	failed
LRELDWFARRGLKEPNLAELLDLVALGSVADVVPLDANNRILVHQGLARIRAGRARPGLRALLEVAGRPPVRITSTDLGFILGPRLNAAGRLDDMSLGIECLLCDDEALARDMAVQLDQLNQDRKAIEQGMQREALAQLKELSLEQLPFGLCLFDADWHQGVIGILASRLKERYHRPTIAFADAGDGSLKGSARSIPGFHIRDALDAVAARHPGLISKFGGHAMAAGLSLPQENFGAFSAAFDAEVRRQLAEEDLAGRLLSDGQLSIQEFHLELARALRQAGPWGQHFPEPMFHGVFQLVQQRIVGERHLKLVLKSECGSLQLDGIAFNIDREQWPNPTVRWAELAYKLDVNEFRGQESVQLMIVHMAPR	failed
MAGEQIKPVASGLLVLNFCMYVIVLGIGGWAMNRAIDHGFEVGPNLELPAHFSPIYFPMGNAATGFFVIFALLAGVVGAASTISGLSHIRSWTVGSLPAAATAATIAWTLTVLAMGFAWKEIELQGRNAKLRTMEAFLIILSVTQLIYIAAVHGVRRP	failed
MRQRKDMPHNRLQTGGMTDEPTDIKAEAKPARTSDLRGFIRLLEERGQLRRIRQPVSLVHEITEIHRRVLADGGPALLFEQPVDHEGKVRKMPLLANLFGTRQRIEWGLGLETGGLPALGQKLTELREPRPPKSMAEAWSKLPLLRAALSMRQRNVSRAPVQEKVLTRDAVDLARLPVQWCWPGEPAPLITWPLVITRSPDDPDDINVGIYRMQVLGPDRVIMRWLAHRGGAHHHRLWQARGLDMPVTVAIGADPATILAAVMPLPDHISELGFSGLLRGAKSRIAKALTVPMPVPANAEIVLEGTVSATETAMEGPYGDHTGYYNSVEAFPVMTLSAITMRRDPIYLSTYTGRPPDEPSVLGEAMLEIFLPLVKRQFAEIVDLWMPPEACSYRVMVASIDKRYPGQAKRVMMGLWSMLPQFSYVKLIILVDPDIDVRSWTDVVWALSTRFDASRDTTIINDTPIDYLDFASPKAGLGGKMGLDATRKLPPETEREWGRVLSMTPDVVAKVDLVWRDLGLGERPLEHHHHHH	failed
MNDRSLGILLMFLTVIFWGISFVATKIILVYIPPITLGFIRFAIAAMILIVLIRNFPSYSKKDFLNLVLAGFLGITSYFLFENVALEYTTATNAALIAATVPIFYLMVSDLVERRIPSKIQYFGSLIGLFGVSILILNGRLILELNPIGDLLMIGAVLSWVLYTFVIQKLEKHDNLTVTRDITLIGVLLSVPFMLLEFGSKGVLDLGVFLNPPLTFAVLYLAIFCSAIAYLFWNMSIRLAGASTTNNGIYFIPIVAMIADSIILKNIPNIYATIGAVLVLFGVYISEKGDKLKIKL	failed
MINFFDLFLSDFLTSLRLFCKVWDEQTTLQALLEHVRAIPGHCQKKILTKLLVTDIWDKEDTKLLAALKHIDVRPTRVACRPSLQVLGLYNDVVTVFQTHGMGWYREIDEDVYPKLVKEFIATCRLTYANPENPKASQGTLTFFLNKKHYNKTMFEIYDMYGFTKGEAVEFSKLSPTHITSLLSTTNPVFEHNEQYLVPDPSKTVPRRRRTAEAQPTDEHVISNDEIYEDYAYPTSLAHAQPYLLLPEDPTPYRVSPPPAGDDISQQMAWMIALTRKNNSMMHKMWRAISRIRPCVCTRRGGVDDANRENQSKTIEDRHAERLVPAAGPSGASTSQPPPEHSQAVA	not failed
MKKWIKIVLYSLLAILIVGSITFLSWSQFTYKPTKEALSLVDDKKDEDYIVFGEKDAKIGVIFYQGAKVEAEAYSYLGEALAKDGHFVVMPKLPLNLALFGINEVDSVIEQYPEVQKWYVAGHSMGGAMISRYAFQHEEKVDGIIFLGSYPADDFSTKSIPMLSIYGEVDALATVEKIENNKKFMSKNTTMHMIKGGNHAHFGMYGEQKGDNASLITAKAQRDETVKVIEQWLLEQ	failed
MDWTTLFFSFRGRINRAKYWLVGLIYVAAWMVFTVLAITWLGGVDPDQLFRFAGGAILIWLIAIALGLAGTWSGLATGVKRLHDRDKSGWWILLFWFGPSLLGGSNQTMEDSPVSLVLALIGLGIAIWGFVELGCLRGTPGPNQYGPDPLEPQGTLT	failed
MHGAEHLLEIFYLLLAAQVMAFIFKRLNQPVVIGEVLAGVLVGPALLGLVHEGEILEFLAELGAVFLLFMVGLETRLKDILAVGKEAFLVAVLGVALPFLGGYLYGLEIGFETLPALFLGTALVATSVGITARVLQELGVLSRPYSRIILGAAVIDDVLGLIVLAVVNGVAETGQVEVGAITRLIVLSVVFVGLAVFLSTLIARLPLERLPVGSPLGFALALGVGMAALAASIGLAPIVGAFLGGMLLSEVREKYRLEEPIFAIESFLAPIFFAMVGVRLELSALASPVVLVAGTVVTVIAILGKVLGGFLGALTQGVRSALTVGVGMAPRGEVGLIVAALGLKAGAVNEEEYAIVLFMVVFTTLFAPFALKPLIAWTERERAAKE	failed
MKLAYWMYAGPAHIGTLRVATSFKNVHAIMHAPLGDDYFNVMRSMLSRERDFTPVTTSVVDRHVLARGSQEKVVDNITRKDAEERPDLIVLTPTCTSSILQEDLENFVERAQLEAKGDVLLADVNHYRVNELQAGDRTLHQIVQYYIEKARKKGELPEGKTAKPSVNIIGISTLGFHNNHDCTELKRLMADLGIEVNAVIPEGASVHELKNLPRAWFNLVPYRELGLMTANYLEKEFGTPCIDIVPMGVVETARCIRKIQEVINAQGADVNYEDYINEQTLYVSQAAWFSRSIDCQNLTGKKAVVFGDNTHAAALTKILSREMGIHVVWAGTYCKYDADWFREQVSEYCDEVLITEDHGEIGDAIARVEPSAIFGTQMERHVGKRLDIPCGVIAAPIHVQNFPIGYKPFLGYEGTNQITDLIYNSFTLGMEDHLLEIFGGHDTKEVITKGISAGSDLSWTKDGLAELNKIPGFVRGKVKRNTEKFARDRGFKDISAEVLYAAKEAVGA	failed
MPKLDLDSIERRIGSVYPGRLNAAMDGRSSLRLGDAGGLSQFGVNLVRLEPGAKSSLRHYHMEQDEFVMVTEGALVLVDDQGEHPMVPGDCAAFPAGDPNGHQFVNRTDAPATFLVVGTRTPTETAYYSDMDMMVKQDASGFAFTRKDGSPLTADQIGDDNE	not failed
MLSFILSIFPIVLLIYLMVKRNALPSYVALPWVATLVMGVHLLHFNTDIVTISANVVSAIIAVQTPITVIFGAILFNRFSEISGATNIMRKWLGNINPNPVAQLMIIGWAFAFMIEGASGFGTPAAIAAPILVGLGFHPLKVAMLALIMNSVPVSFGAVGTPTWFGFGALKLSEDMILEIGSITAFIHSIAALIIPLLALRILVNWDDIRKNIVFIYISVLGCVVPYFLIAQVNYEFPSLVGGAIGLFISVWAANRNIGLAKVTNTLDNNAVSAGEVVKALFPTGLLIAFLIVTRIHQLPFKAMMNDATIWFSTTLGSLGLFEISKGLIFSLKNIFGSNVSSSYKLLYVPALIPFVITVLIAIPFFKISSSNVKQILVSSLQQSKNPFIALIGALVMVNLMLVGGEHSMVKIIGRTFAEISGSNWTIFSSFLGAIGSFFSGSNTVSNLTFGSVQLSTAETTGISVALVLALQSVGGAMGNMVCINNIVAVSSVLNISNQEGTIIKKTIIPMIIYGIIAALGALFLVPLFYNL	failed
